Source: patent US20240287163A1 (Chugai, published 2024)

What was measured:
Experiment in all cases: SPR (Biacore T200), antibody captured on protein L, FcγR injected
[1] = target: T1, cynomolgus Fc gamma receptor IIb (cynomolgus monkey)
T1 construct: also called cyFcγRIIb
T1 chain: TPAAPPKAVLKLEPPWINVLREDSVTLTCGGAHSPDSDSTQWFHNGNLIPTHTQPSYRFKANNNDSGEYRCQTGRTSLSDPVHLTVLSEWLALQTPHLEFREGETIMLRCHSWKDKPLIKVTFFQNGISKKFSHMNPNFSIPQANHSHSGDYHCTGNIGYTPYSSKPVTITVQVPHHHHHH
Experimental: (§1) The binding property of each sample to FcγRs at pH7.4 was determined at 25° C. using BIACORE® T200 instrument (Cytiva). First, protein L (BioVision) was immobilized onto all of the flow cells of a CM4 sensor chip using Amine Coupling Kit, type2 (Cytiva). 50 mM phosphate buffer (pH7.4) containing 150 mM NaCl, 0.05% Tween® 20 was used as the running buffer, and antibodies with the binding response of which were prepared to 500 RU or 2000 RU were captured on the sensor surface. Human and monkey FcγRs diluted with the running buffer were injected thereto and the amount bound with the antibodies was measured. hFcγRIa and cyFcγRIa were diluted to 8 nM, and the rest were diluted to 1000 nM. The sensor surface was regenerated every cycle, using 10 mM glycine hydrochloride solution, pH1.5 (prepared in-house).

[2] = target: T2, cynomolgus Fc gamma receptor IIIa (R) (cynomolgus monkey, UniProt Q8SPW2 17-208)
T2 construct: also called cyFcγRIIIa(R)
T2 sequence (Q8SPW2 other isoform, or with tags, fused parts or gaps): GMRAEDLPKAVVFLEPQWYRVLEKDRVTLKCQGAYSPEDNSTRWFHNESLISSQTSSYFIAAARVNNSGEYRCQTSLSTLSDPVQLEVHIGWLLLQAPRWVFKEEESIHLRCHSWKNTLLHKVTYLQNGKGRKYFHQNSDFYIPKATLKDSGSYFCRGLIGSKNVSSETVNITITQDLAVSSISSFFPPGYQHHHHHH
Experimental: as §1

[3] = target: T3, cynomolgus Fc gamma receptor IIa2 (cynomolgus monkey)
T3 construct: also called cyFcγRIIa2
T3 chain: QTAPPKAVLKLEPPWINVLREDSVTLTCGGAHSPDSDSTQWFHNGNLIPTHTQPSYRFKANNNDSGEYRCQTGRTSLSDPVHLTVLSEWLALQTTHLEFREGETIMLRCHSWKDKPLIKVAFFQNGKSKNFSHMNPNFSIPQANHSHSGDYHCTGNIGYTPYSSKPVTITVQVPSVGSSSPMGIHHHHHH
Experimental: as §1

[4] = target: T4, cynomolgus Fc gamma receptor IIa3 (cynomolgus monkey)
T4 construct: also called cyFcγRIIa3
T4 chain: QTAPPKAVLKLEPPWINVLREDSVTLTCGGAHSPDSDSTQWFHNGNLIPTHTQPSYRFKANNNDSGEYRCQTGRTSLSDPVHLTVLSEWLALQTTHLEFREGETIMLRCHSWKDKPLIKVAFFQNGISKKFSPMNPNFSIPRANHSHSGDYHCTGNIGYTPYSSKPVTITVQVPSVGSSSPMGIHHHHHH
Experimental: as §1

[5] = target: T5, cynomolgus Fc gamma receptor IIa1 (cynomolgus monkey)
T5 construct: also called cyFcγRIIa1
T5 chain: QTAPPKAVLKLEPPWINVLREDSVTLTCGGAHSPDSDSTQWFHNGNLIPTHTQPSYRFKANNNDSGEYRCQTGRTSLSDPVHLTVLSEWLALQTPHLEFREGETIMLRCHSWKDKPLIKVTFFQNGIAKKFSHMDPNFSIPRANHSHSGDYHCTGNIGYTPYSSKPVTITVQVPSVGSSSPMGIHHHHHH
Experimental: as §1

[6] = target: T6, cynomolgus Fc gamma receptor Ia (cynomolgus monkey, UniProt P12314 16-288 (human entry))
T6 construct: also called cyFcγRIa
T6 chain: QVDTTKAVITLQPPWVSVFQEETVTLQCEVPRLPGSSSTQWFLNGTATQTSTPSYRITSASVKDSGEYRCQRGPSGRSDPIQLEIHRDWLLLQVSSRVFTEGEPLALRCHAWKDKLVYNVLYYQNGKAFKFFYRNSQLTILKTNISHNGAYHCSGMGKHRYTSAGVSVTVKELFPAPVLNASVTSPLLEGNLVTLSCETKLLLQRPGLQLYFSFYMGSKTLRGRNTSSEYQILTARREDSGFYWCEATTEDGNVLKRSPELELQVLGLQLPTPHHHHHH
Experimental: as §1

[7] = target: T7, cynomolgus Fc gamma receptor IIIa (S) (cynomolgus monkey, UniProt Q8SPW2 21-206 at identity 1.00))
T7 construct: also called cyFcγRIIIa(S)
T7 chain: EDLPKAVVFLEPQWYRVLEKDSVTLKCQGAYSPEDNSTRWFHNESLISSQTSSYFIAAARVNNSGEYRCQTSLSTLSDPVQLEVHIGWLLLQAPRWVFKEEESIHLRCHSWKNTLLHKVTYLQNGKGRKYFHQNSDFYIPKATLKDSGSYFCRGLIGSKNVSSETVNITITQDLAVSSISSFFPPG
Experimental: as §1

- binding result [1]: no binding (tested: 1000 nM)
- binding result [2]: no binding (tested: 1000 nM)
- binding result [3]: no binding (tested: 1000 nM)
- binding result [4]: no binding (tested: 1000 nM)
- binding result [5]: no binding (tested: 1000 nM)
- binding result [6]: no binding (tested: 8 nM)
- binding result [7]: no binding (tested: 1000 nM)
B1: COS0637pHv2-FcgSil (antibody)
heavy: QVQLVESGGGVVQPGRSLRLSCAASGFRFSAYAMNWIRQPPGKGLEWIGLIYGKGSTFYASWAKERVTISVDTSKNQFSLKLSSVTAADTAVYYCARGRSVNYNSDFHLWGQGTLVTVSSASTKGPSVFPLAPSSKSTSGGTAALGCLVKDYFPEPVTVSWNSGALTSGVHTFPAVLQSSGLYSLSSVVTVPSSSLGTQTYICNVNHKPSNTKVDKRVEPKSCDKTHTCPPCPAPELRRGPSVFLFPPKPKDTLMISRTPEVTCVVVDVSDEDPEVKFNWYVDGVEVHNAKTKPREELYNSTYRVVSVLTVLHRDWLNGKEYKCKVSNTALPKPIEKTISKAKGQRREPQVYTLPPSREEMTKNQVSLTCLVKGFYPSDIAVEWESNGQPENNYKTTPPVLDSDGSFFLYSKLTVDKSRWQQGNVFSCSVLHEALHAHTTRKELSLSP
light: DIQMTQSPSSLSASVGDRVTITCQASQSLHDKKNLAWYQQKPGQPPKLLIYGASTLESGVPSRFSGSGSGTDFTLTISSLQPEDFATYYCQGEFSCSSADCNTFGQGTKVEIKRTVAAPSVFIFPPSDEQLKSGTASVVCLLNNFYPREAKVQWKVDNALQSGNSQESVTEQDSKDSTYSLSSTLTLSKADYEKHKVYACEVTHQGLSSPVTKSFNRGEC
notes: FcγR-silenced constant region FcgSil
